Experimental data: patent US8841274B2, “Protein arginine N-methyltransferase-5 method of cancer treatment” (priority 2009, dated 2014)

Assays:
[1] = target: T1, DP-1 (Homo sapiens, UniProt Q14186); assay: Co-immunoprecipitation of ectopic E2F-1 with DP-1 in U2OS cells; format: cell-based; conditions: expression vector transfected into U2OS cells, HA11 IP
T1 construct: endogenous in cells; host or cells: U2OS
T1 sequence (Q14186 1-410): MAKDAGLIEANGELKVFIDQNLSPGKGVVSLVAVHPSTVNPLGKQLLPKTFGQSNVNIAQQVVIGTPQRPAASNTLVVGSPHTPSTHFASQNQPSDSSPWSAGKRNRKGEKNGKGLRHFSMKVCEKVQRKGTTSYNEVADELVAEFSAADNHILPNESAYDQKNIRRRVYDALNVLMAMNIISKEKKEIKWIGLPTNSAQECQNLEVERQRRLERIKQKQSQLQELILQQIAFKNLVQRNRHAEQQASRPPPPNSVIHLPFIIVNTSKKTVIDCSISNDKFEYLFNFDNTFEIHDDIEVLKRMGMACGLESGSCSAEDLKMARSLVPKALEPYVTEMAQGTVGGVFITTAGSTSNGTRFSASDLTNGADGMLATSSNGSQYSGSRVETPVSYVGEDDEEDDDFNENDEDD
Excerpt: (§1) To establish whether E2F-1 was able to bind to PRMT5 in cells, the interaction between ectopic wild-type E2F-1 or KKK with PRMT5 was studied. […] Either a wild-type E2F-1 expression vector or a KKK expression vector was transfected into U2OS cells, and HA11 antibody was used for immunoprecipitation (IP) followed by immunoblotting with HA11 (E2F-1), PRMT5 or DP-1 as indicated. The level of input (In) protein is indicated. […] In contrast, binding to DP-1 was equivalent for both wild-type E2F-1 and KKK. […] Further, the RGRGR motif is necessary for the interaction, which also encompasses the site of PRMT5 methylation.
(§2) Cells were either left untransfected or transfected with expression vectors as indicated. At 48 h post transfection, cells were harvested in TNN buffer (50 mM Tris-HC1 [pH 7.4], 150 mM NaCl, 5 mM EDTA, 0.5% Ipegal, 50 mM NaF, 0.2 mM sodium orthovanadate and protease inhibitor cocktail (1 mM PMSF, leupeptin [1 μg/ml], aprotinin [1 μg/m1], and pepstatin A [1 μg/ml])) and rotated at 4° C. for 30 min to 1 h. The cell lysate was then homogenised, centrifuged at 11000 rpm for 10 min to remove cell debris and the supernatant collected. All lysates were normalized for protein concentration and, where appropriate, for transfection by β-galactosidase activity. […] Enhanced chemi-luminescence (Pierce Biotechnology, Rockford, Ill.) was used to visualize antibody binding.

[2] = target: PRMT5 (Homo sapiens, UniProt O14744); assay: Co-immunoprecipitation of ectopic E2F-1 with PRMT5 in U2OS cells; format: cell-based; design: The indicated GST proteins were incubated with U2OS cell lysate; endogenous in cells; host or cells: U2OS; conditions: expression vector transfected into U2OS cells, HA11 IP
Excerpt: as §1, §2

PRMT5, sequence (O14744 whole entry): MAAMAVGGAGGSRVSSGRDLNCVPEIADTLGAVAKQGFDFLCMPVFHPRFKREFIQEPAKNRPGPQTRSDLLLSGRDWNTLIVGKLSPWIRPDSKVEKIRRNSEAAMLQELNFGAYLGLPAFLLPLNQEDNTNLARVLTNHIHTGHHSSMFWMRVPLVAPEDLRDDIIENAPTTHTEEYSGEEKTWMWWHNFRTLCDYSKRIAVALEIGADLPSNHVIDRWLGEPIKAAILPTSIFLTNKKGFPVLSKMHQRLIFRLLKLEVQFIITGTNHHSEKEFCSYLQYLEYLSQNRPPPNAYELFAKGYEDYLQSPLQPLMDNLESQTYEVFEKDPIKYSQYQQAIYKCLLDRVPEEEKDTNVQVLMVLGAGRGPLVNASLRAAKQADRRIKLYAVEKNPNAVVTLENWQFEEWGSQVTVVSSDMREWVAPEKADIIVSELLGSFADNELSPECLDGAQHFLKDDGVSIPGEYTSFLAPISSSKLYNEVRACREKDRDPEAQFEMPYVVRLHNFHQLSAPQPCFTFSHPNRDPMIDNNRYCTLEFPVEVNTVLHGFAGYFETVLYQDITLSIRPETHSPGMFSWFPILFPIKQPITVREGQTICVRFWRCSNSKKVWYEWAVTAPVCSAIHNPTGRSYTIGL

## KKK: methylation-defective E2F-1 protein containing the mutations R109K, R111K and R113K
[1]
  binding to DP-1 in cells: equivalent
[2]
  co-immunoprecipitation with PRMT5: not apparent
